The source of these data is US20240366776A1 (Hoffmann-La Roche, published 2024).

Assay [1] has as its target PD-1-Fc (UniProt Q15116 25-167, limits assumed). Kind of assay: cell-based or functional assay.
Assay [2] concerns the target T1, biotinylated IL-2 receptor beta gamma heterodimer Fc (IL-2RBG; Acro ILG-H5254) (UniProt P14784 27-239; P31785 23-262, biotinylated).
T1 construct: bought heterodimer
T1 sequence (looked up) 1: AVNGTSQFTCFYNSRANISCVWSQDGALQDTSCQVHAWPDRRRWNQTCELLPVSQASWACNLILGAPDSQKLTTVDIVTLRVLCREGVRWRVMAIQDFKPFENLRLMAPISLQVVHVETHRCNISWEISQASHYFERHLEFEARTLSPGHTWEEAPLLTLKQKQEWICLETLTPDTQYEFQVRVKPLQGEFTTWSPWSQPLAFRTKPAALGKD
T1 sequence (looked up) 2: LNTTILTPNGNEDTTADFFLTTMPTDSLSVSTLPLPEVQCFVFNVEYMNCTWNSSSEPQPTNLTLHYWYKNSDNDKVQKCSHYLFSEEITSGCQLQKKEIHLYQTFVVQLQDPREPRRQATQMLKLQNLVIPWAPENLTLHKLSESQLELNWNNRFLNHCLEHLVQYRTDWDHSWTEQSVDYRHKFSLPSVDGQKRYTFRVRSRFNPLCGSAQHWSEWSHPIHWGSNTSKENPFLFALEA
In words: ELISA, captured complex, biotin-IL-2RBG 10 nM, PD-1 Fc titrated. The protocol: The DBA-cytokine complexes and control antibody-cytokine complexes were produced in two formats: (1) “Symmetric” immunocytokine (shown in FIG. 2E); or (2) “Asymmetric” immunocytokine (shown in FIG. 2B) by expression in mammalian cells and purified using standard protocols. […] To perform the assay, 384-well ELISA plates were coated with anti-Fc antibody at 1 micrograms/ml in 100 mM bicarbonate solution pH 9.0 overnight at 4° C. and washed twice with SUPERBLOCK™. Antibody-cytokine complexes were then added to each well at a constant concentration of 6 nM and allowed to incubate for 1 hour and washed three times in PBS plus 0.05% TWEEN® 20 (PBST). Titrated concentrations of PD-1 Fc or an IgG1 control Fc were added and allowed to incubate for 15 minutes before the addition of a constant amount of biotinylated IL-2RBG at 10 nM. The plates were incubated for an additional 30 minutes, washed and biotinylated IL-2RBG detection was performed using streptavidin-HRP and standard ELISA protocols.

Substitutions are numbered along the chain they refer to.

Sequence of PD-1-Fc (Q15116 25-167 limits assumed): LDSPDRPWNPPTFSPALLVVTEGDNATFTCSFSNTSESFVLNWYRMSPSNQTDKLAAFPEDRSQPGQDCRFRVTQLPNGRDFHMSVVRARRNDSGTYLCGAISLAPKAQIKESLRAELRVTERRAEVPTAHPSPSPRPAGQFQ

B1: AF4403 (other)
heavy 1: QVQLVESGGGVVQPGRSLRLDCKASGITFSNSGMHWVRQAPGKGLEWVAVIWYDGSKRYYADSVKGRFTISRDNSKNTLFLQMNSLRAEDTAVYYCATNDDYWGQGTLVTVSSAKTTAPSVYPLAPVCGDTTGSSVTLGCLVKGYFPEPVTLTWNSGSLSSGVHTFPAVLQSDLYTLSSSVTVTSSTWPSQSITCNVAHPASSTKVDKKIEPRGPTIKPCPPCKCPAPNAAGGPSVFIFPPKIKDVLMISLSPIVTCVVVDVSEDDPDVQISWFVNNVEVHTAQTQTHREDYNSTLRVVSALPIQHQDWMSGKEFKCKVNNKDLGAPIERTISKPKGSVRAPQVYVLPPPEEEMTKKQVTLTCMVTDFMPEDIYVEWTNNGKTELNYKNTEPVLDSDGSYFMYSDLRVEKKNWVERNSYSCSVVHEGLHNHHTTESFSRTPGGGGGSGGGGSGGGGSAPTSSSTKKTQLQLEHLLLDLQMILNGINNYKNPKLTDMLTFEFYMPKKATELKHLQCLERELKPLEEVLNLAQSKNFHLRPRDLISNINVIVLELKGSETTFMCEYADETATIVEFLNRWITFCQSIISTLT
heavy 2: QVQLVESGGGVVQPGRSLRLDCKASGITFSNSGMHWVRQAPGKGLEWVAVIWYDGSKRYYADSVKGRFTISRDNSKNTLFLQMNSLRAEDTAVYYCATNDDYWGQGTLVTVSSAKTTAPSVYPLAPVCGDTTGSSVTLGCLVKGYFPEPVTLTWNSGSLSSGVHTFPAVLQSDLYTLSSSVTVTSSTWPSQSITCNVAHPASSTKVDKKIEPRGPTIKPCPPCKCPAPNAAGGPSVFIFPPKIKDVLMISLSPIVTCVVVDVSEDDPDVQISWFVNNVEVHTAQTQTHREDYNSTLRVVSALPIQHQDWMSGKEFKCKVNNKDLGAPIERTISKPKGSVRAPQVYVLPPPEKEMTKKQVSLTCLVKDFMPEDIYVEWTNNGKTELNYKNTEPVLKSDGSYFMYSKLTVEKKNWVERNSYSCSVVHEGLHNHHTTKSFSRTPGGGGGSGGGGSGGGGSGGGGSQVQLVQSGAEVKKPGASVKVSCKASGDTFTRYYVHWVRQAPGQGLEWMGIINPSGGYASYAQKFQGRVTMTRDTSTSTVYMELSSLRSEDTAVYYCAAGLFIWGQGTLVTVSSASGGGGSGGGGSGGGGSHASDIQMTQSPSSLSASVGDRVTITCRASQSIGRYLAWYQQKPGKAPKLLIYSASNLETGVPSRFSGSGSGTDFTLTISSLQPEDFATYYCQQYNSFPVTFGPGTKVDIKGGGSGGGSHHHHHH
light: EIVLTQSPATLSLSPGERATLSCRASQSVSSYLAWYQQKPGQAPRLLIYDASNRATGIPARFSGSGSGTDFTLTISSLEPEDFAVYYCQQSSNWPRTFGQGTKVEIKRADAAPTVSIFPPSSEQLTSGGASVVCFLNNFYPKDINVKWKIDGSERQNGVLNSWTDQDSKDSTYSMSSTLTLTKDEYERHNSYTCEATHKTSTSPIVKSFNRNEC
For B1, in assay [1], the “IL-2 activity EC50, HEK-Blue IL-2 reporter cells, PD-1 coated wells” value worked out at 0.031 nM and the “IL-2 activity EC50, HEK-Blue IL-2 reporter cells, control wells” value came out at 0.062 nM.

B2: AF003951 (other)
heavy 1: APASSSTKKTQLQLEHLLLDLQMILNGINNYKNPKLTRMLTAKFAMPKKATELKHLQCLEEELKPLEEVLNGAQSKNFHLRPRDLISNINVIVLELKGSETTFMCEYADETATIVEFLNRWITFAQSIISTLTGGGGSGGGGSGGGGSGGGGSQVQLVQSGAEVKKPGASVKVSCKASGYTFTDYYMHWVRQAPGQGLEWMGIINPRAGYTSYALKFQGRVTMTRDTSTSTVYMELSSLRSEDTAVYYCTSGWDVWGQGTLVTVSSAKTTAPSVYPLAPVCGDTTGSSVTLGCLVKGYFPEPVTLTWNSGSLSSGVHTFPAVLQSDLYTLSSSVTVTSSTWPSQSITCNVAHPASSTKVDKKIEPRGPTIKPCPPCKCPAPNAAGGPSVFIFPPKIKDVLMISLSPIVTCVVVDVSEDDPDVQISWFVNNVEVHTAQTQTHREDYNSTLRVVSALPIQHQDWMSGKEFKCKVNNKDLGAPIERTISKPKGSVRAPQVYVLPPPEEEMTKKQVTLTCMVTDFMPEDIYVEWTNNGKTELNYKNTEPVLDSDGSYFMYSDLRVEKKNWVERNSYSCSVVHEGLHNHHTTESFSRTPGK
heavy 2: QVQLVQSGAEVKKPGASVKVSCKASGYTFTDYYMHWVRQAPGQGLEWMGIINPRAGYTSYALKFQGRVTMTRDTSTSTVYMELSSLRSEDTAVYYCTSGWDVWGQGTLVTVSSAKTTAPSVYPLAPVCGDTTGSSVTLGCLVKGYFPEPVTLTWNSGSLSSGVHTFPAVLQSDLYTLSSSVTVTSSTWPSQSITCNVAHPASSTKVDKKIEPRGPTIKPCPPCKCPAPNAAGGPSVFIFPPKIKDVLMISLSPIVTCVVVDVSEDDPDVQISWFVNNVEVHTAQTQTHREDYNSTLRVVSALPIQHQDWMSGKEFKCKVNNKDLGAPIERTISKPKGSVRAPQVYVLPPPEKEMTKKQVSLTCLVKDFMPEDIYVEWTNNGKTELNYKNTEPVLKSDGSYFMYSKLTVEKKNWVERNSYSCSVVHEGLHNHHTTKSFSRTPGGGGSGGGSHHHHHH
light: DIQMTQSPSSLSASVGDRVTITCRASQSISTWLAWYQQKPGKAPKLLIYAASSLDSGVPSRFSGSGSGTDFTLTISSLQPEDFATYYCQQSYSFPVTFGQGTKVEIKRADAAPTVSIFPPSSEQLTSGGASVVCFLNNFYPKDINVKWKIDGSERQNGVLNSWTDQDSKDSTYSMSSTLTLTKDEYERHNSYTCEATHKTSTSPIVKSFNRNEC
notes: also called AF3951
Take B2: the binding result in assay [2] is “binds”.

B3: AF003955 (other)
heavy 1: APASSSTKKTQLQLEHLLLDLQMILNGINNYKNPKLTRMLTAKFAMPKKATELKHLQCLEEELKPLEEVLNGAQSKNFHLRPRDLISNINVIVLELKGSETTFMCEYADETATIVEFLNRWITFAQSIISTLTGGGGSGGGGSGGGGSGGGGSQVQLVQSGAEVKKPGASVKVSCKASGHTFTRYYMHWVRQAPGQGLEWMGIINPSGGYATYAQKFQGRVTMTRDTSTSTVYMELSSLRSEDTAVYYCASGLFIWGQGTLVTVSSAKTTAPSVYPLAPVCGDTTGSSVTLGCLVKGYFPEPVTLTWNSGSLSSGVHTFPAVLQSDLYTLSSSVTVTSSTWPSQSITCNVAHPASSTKVDKKIEPRGPTIKPCPPCKCPAPNAAGGPSVFIFPPKIKDVLMISLSPIVTCVVVDVSEDDPDVQISWFVNNVEVHTAQTQTHREDYNSTLRVVSALPIQHQDWMSGKEFKCKVNNKDLGAPIERTISKPKGSVRAPQVYVLPPPEEEMTKKQVTLTCMVTDFMPEDIYVEWTNNGKTELNYKNTEPVLDSDGSYFMYSDLRVEKKNWVERNSYSCSVVHEGLHNHHTTESFSRTPGK
heavy 2: QVQLVQSGAEVKKPGASVKVSCKASGHTFTRYYMHWVRQAPGQGLEWMGIINPSGGYATYAQKFQGRVTMTRDTSTSTVYMELSSLRSEDTAVYYCASGLFIWGQGTLVTVSSAKTTAPSVYPLAPVCGDTTGSSVTLGCLVKGYFPEPVTLTWNSGSLSSGVHTFPAVLQSDLYTLSSSVTVTSSTWPSQSITCNVAHPASSTKVDKKIEPRGPTIKPCPPCKCPAPNAAGGPSVFIFPPKIKDVLMISLSPIVTCVVVDVSEDDPDVQISWFVNNVEVHTAQTQTHREDYNSTLRVVSALPIQHQDWMSGKEFKCKVNNKDLGAPIERTISKPKGSVRAPQVYVLPPPEKEMTKKQVSLTCLVKDFMPEDIYVEWTNNGKTELNYKNTEPVLKSDGSYFMYSKLTVEKKNWVERNSYSCSVVHEGLHNHHTTKSFSRTPGGGGSGGGSHHHHHH
light: B2 light with S30N, T31S, A51T, S53T, D55E, S91Y, S93R
notes: also called AF3955
As for B3, in assay [2], the binding result was “binds”.

B4: AF003952 (other)
heavy 1: B2 heavy 1 with D184R
heavy 2: B2 heavy 2 with D31R
light: B2 light
notes: also called AF3952
With B4, the binding result in assay [2] was “binds”.

B5: AF003956 (other)
heavy 1: B2 heavy 1
heavy 2: B2 heavy 2
light: B2 light with S93R
notes: also called AF3956
Consider B5, for which the binding result in assay [2] is recorded as “binds”.

B6: AF003953 (other)
heavy 1: B2 heavy 1 with D184T
heavy 2: B2 heavy 2 with D31T
light: B2 light
notes: also called AF3953
As to B6, the binding result in assay [2] was “binds”.

B7: AF4379 (other)
heavy: APTSSSTKKTQLQLEHLLLDLQMILNGINNYKNPKLTDMLTFEFYMPKKATELKHLQCLERELKPLEEVLNLAQSKNFHLRPRDLISNINVIVLELKGSETTFMCEYADETATIVEFLNRWITFCQSIISTLTGGGGSGGGGSGGGGSGGGGSQVQLVQSGAEVKKPGASVKVSCKASGDTFTRYYVHWVRQAPGQGLEWMGIINPSGGYASYAQKFQGRVTMTRDTSTSTVYMELSSLRSEDTAVYYCAAGLFIWGQGTLVTVSSAKTTAPSVYPLAPVCGDTTGSSVTLGCLVKGYFPEPVTLTWNSGSLSSGVHTFPAVLQSDLYTLSSSVTVTSSTWPSQSITCNVAHPASSTKVDKKIEPRGPTIKPCPPCKCPAPNAAGGPSVFIFPPKIKDVLMISLSPIVTCVVVDVSEDDPDVQISWFVNNVEVHTAQTQTHREDYNSTLRVVSALPIQHQDWMSGKEFKCKVNNKDLGAPIERTISKPKGSVRAPQVYVLPPPEEEMTKKQVTLTCMVTDFMPEDIYVEWTNNGKTELNYKNTEPVLDSDGSYFMYSKLRVEKKNWVERNSYSCSVVHEGLHNHHTTKSFSRTPGK
light: DIQMTQSPSSLSASVGDRVTITCRASQSIGRYLAWYQQKPGKAPKLLIYSASNLETGVPSRFSGSGSGTDFTLTISSLQPEDFATYYCQQYNSFPVTFGPGTKVDIKRADAAPTVSIFPPSSEQLTSGGASVVCFLNNFYPKDINVKWKIDGSERQNGVLNSWTDQDSKDSTYSMSSTLTLTKDEYERHNSYTCEATHKTSTSPIVKSFNRNEC
Consider B7, for which, in assay [1], the “IL-2 activity EC50, HEK-Blue IL-2 reporter cells, IgG1 coated wells (control)” value stood at 0.062 nM and the “IL-2 activity EC50, HEK-Blue IL-2 reporter cells, PD-1 coated wells” value is 0.031 nM.
